B1: bispecific anti-VEGF-A/anti-ANG2 Fab fragment P1AA0902 (Fab, V domains shown)
VH: DDHLVESGGGLVKPGGSLRLSCATADFFEYDDMSWVRQAPGKGLEWVGSISGRGDHKYLNTKFIGRFTISRDDSKNTLYLQMNSLRAEDTAVYYCARDVGFFDWWGQGTLVTVSS
VL: AIYMHQEPSSLSASVGDRVTITCHGSYWLNSELAWYQQKPGKAPKLLIFDGDFKVFDVPSRFSGSGSHEDYTLTISSLQPEDFATYYCQQYRYHPYTFGHGTKVEIKR
notes: Bispecific Fab with two paratopes in one VH/VL pair
B2: bispecific anti-VEGF-A/anti-ANG2 Fab fragment P1AA8906 (Fab, V domains shown)
VH: DFQLVESGGGLVKPGGSLRLSCAASYEFEYDDMSWVRQAPGKGLEWVGSISPKGGSTYYNTKFIGRFTISRDNSKNTLYLQMNSLRAEDTAVYYCARDVGFFDMWGQGTLVTVSS
VL: AIYMHQEPSSLSASVGDRVTITCHGSYWLSNYLAWYQQKPGKAPKLLIFDARWLVHGVPSRFSGSGSHEDYTLTISSLQPEDFATYYCQQYRYHPYTFGHGTKVEIKR
notes: Bispecific Fab with two paratopes in one VH/VL pair (DutaFab); CH1 and Ckappa
B3: bispecific anti-VEGF-A/anti-ANG2 Fab fragment P1AD9820 (Fab, V domains shown)
VH: SEHLVESGGGLVKPGGSLRLSCATADFFEYDDMSWVRQAPGKGLEWVGSISPKGDHKYLNTKFIGRFTISRDDSKNTLYLQMNSLRAEDTAVYYCARDVGFFDWWGQGTLVTVSS
VL: AIYMHQEPSSLSASVGDRVTITCHGSYWLNSEVAWYQQKPGKAPKLLIFDGDFKVYEVPSRFSGSGSHEDYTLTISSLQPEDFATYYCQQYRYHPYTFGHGTKVEIKR
notes: Bispecific Fab with two paratopes in one VH/VL pair; also called P1AD9820 Fab

How the values were obtained:
[1] = target: T1, human Ang2-RBD (human, UniProt O15123 275-496, limits assumed); test: SPR, Fab captured by anti-Fab antibody, Ang2-RBD injected, 25 C
T1 construct: also called Human ANG2 (SPR); Angiopoietin 2-RBD
T1 sequence: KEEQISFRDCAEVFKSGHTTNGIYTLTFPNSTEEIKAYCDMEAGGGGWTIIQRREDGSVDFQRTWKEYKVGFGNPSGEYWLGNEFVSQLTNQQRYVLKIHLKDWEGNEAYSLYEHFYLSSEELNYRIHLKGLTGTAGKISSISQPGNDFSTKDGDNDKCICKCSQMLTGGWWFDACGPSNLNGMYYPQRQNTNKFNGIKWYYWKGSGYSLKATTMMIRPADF
Method: An anti-Fab capturing antibody (GE Healthcare 28958325) was immobilized to a Series S Sensor Chip C1 (GE Healthcare BR100535) using standard amine coupling chemistry resulting in a surface density of approximately 800 resonance units (RU). As running and dilution buffer, HBS-P+ (10 mM HEPES, 150 mM NaCl pH 7.4, 0.05% Surfactant P20) was used, the temperature of measurement was 25° C. The tested antibody was captured by injecting a 50 nM solution for 60 sec at a flow of 5 μl/min. Association was measured by injection of human Ang2-RBD in various concentrations in solution for 180 sec at a flow of 30 μl/min (0.07 nM-50 nM, 1:3 dilution). The dissociation phase was monitored for up to 900 sec and triggered by switching from the sample solution to running buffer at a flow rate of 30 μl/min. The surface was regenerated by injection of 10 mM Glycine pH 2.1 for 60 s at a flow rate of 30 μl/min. Bulk refractive index differences were corrected by subtracting blank injections and by subtracting the response obtained from the reference flow cell without captured tested antibody. Curve fitting was performed using the 1:1 Langmuir binding model within the Biacore® evaluation software.
(§1) Binding kinetics to human VEGF-A and human ANG2 for the candidate antibodies were assessed as described above using the indicated Fab fragments (amino acid sequence as illustrated in Table 4).

[2] = target: T2, human Ang2-RBD-muFc (human, UniProt O15123 275-496, limits assumed); test: KinExA equilibrium titration in solution, constant Ang2-RBD-muFc
T2 construct: also called Human ANG2 (KinExA); not shown: murine Fc (muFc)
T2 sequence: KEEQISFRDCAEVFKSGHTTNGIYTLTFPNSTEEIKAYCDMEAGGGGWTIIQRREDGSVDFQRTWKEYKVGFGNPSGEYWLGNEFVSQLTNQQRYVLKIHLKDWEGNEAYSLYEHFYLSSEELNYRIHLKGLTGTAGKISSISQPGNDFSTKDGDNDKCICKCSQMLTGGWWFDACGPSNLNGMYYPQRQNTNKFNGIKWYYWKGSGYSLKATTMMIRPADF
Method: All KinExA® experiments were performed at room temperature (RT) using PBS pH 7.4 with 0.01% BSA and 0.01% Tween® 20 (BioRad, #161-0781) as running buffer. […] A flow rate of 0.25 ml/min was used. A constant amount of Ang2-RBD-muFc (50 pM and in a second experiment 500 pM) was titrated with tested antibody by twofold serial dilution starting at 4 nM (concentration range 1.95 pM-4000 pM). Antigen-antibody complexes were incubated at RT for at least 8 h to allow equilibrium to be reached. Equilibrated mixtures were then drawn through a column of Anti-Ang2 antibody (MAB098) coupled beads in the KinExA® system at a volume of 750 μl for 50 pM constant Ang2 and at a volume of 188 μl for 500 pM constant Ang2 permitting unbound Ang2 to be captured by the beads without perturbing the equilibrium state of the solution. Bound Ang2 was detected using a second biotinylated anti-Ang2 antibody (BAM0981) with a concentration of 250 ng/ml and following by an injection of 250 ng/ml Streptavidin Alexa Fluor™ 647 conjugate in sample buffer. Each sample was measured in duplicates for all equilibrium experiments. The KD was obtained from non-linear regression analysis of the data using a one-site homogeneous binding model contained within the KinExA® software (Version 4.0.11) using the “standard analysis” method. The software calculates the KD and determines the 95% confidence interval by fitting the data points to a theoretical KD curve. The 95% confidence interval is given as KD low and KD high.

[3] = target: T3, human VEGFA-121-His (human, UniProt P15692 181-395); test: SPR, VEGF-A121-His captured by anti-His antibody, Fab injected, single cycle kinetics
T3 construct: Prepared in-house; not shown: His tag
T3 sequence: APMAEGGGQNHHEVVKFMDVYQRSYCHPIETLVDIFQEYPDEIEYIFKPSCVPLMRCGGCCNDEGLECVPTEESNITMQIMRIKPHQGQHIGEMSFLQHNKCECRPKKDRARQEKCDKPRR
Method: (§2) An anti-His capturing antibody (GE Healthcare 28995056) was immobilized to a Series S Sensor Chip C1 (GE Healthcare BR100535) using standard amine coupling chemistry resulting in a surface density of approximately 600 resonance units (RU). As running and dilution buffer, HBS-P+ (10 mM HEPES, 150 mM NaCl pH 7.4, 0.05% Surfactant P20) was used. […] A dilution series of the tested antibody (3.7-300 nM, 1:3 dilution) was successively injected for 60 s each, dissociation was monitored for 3600 s at a flow rate of 30 μl/min (single cycle kinetics). The surface was regenerated by injecting 10 mM Glycine pH 1.5 for 60 s at a flow of 5 μl/min. […] Curve fitting was performed using the 1:1 Langmuir binding model within the Biacore® evaluation software.
as §1

[4] = target: T3, human VEGFA-121-His; test: SPR, VEGF-A121-His captured by anti-His antibody, Fab injected, single cycle kinetics, 1:1 fit
Method: as §2, §1

[5] = target: T1, human Ang2-RBD; test: SPR, Fab captured by anti-Fab antibody; 3) VEGFA-121 first, then Ang2-RBD (binding of Ang2 in the presence of VEGFA-121); final combined signal of both antigens
Method: (§3) The bispecific Fab was captured by injecting a 6.5 μg/ml solution for 60 sec at a flow of 5 μl/min. Independent binding of each ligand to the bispecific Fab was analysed by determining the active binding capacity for each ligand, either added sequentially or simultaneously (flow of 10 μl/min): [0359] […] [0360] 2) Injection of human Ang2 with a concentration of 5 μg/ml for 60 sec (identifies single binding of the antigen) [0361] […] [0362] […] [0363]
(§4) Independent binding of candidate antibodies to human VEGF-A and human ANG2 was analysed by SPR as described above in the “Materials & general methods” section.

[6] = target: T4, human VEGFA-121 (human, UniProt P15692 181-395); test: SPR, Fab captured by anti-Fab antibody; 4) Ang2-RBD first, then VEGFA-121 (binding of VEGFA-121 in the presence of Ang2); final combined signal of both antigens
T4 construct: sources differ (in-house, R&D, Peprotech); also called hVEGF-A121
T4 sequence: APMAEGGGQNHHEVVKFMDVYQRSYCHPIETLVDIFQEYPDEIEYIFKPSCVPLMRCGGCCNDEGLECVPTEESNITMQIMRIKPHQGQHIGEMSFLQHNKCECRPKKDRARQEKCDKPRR
Method: as §3, §4

Binder | t1/2 [1] [h] | Kd [2] [pM] | t1/2 [3] [h] | kon [4] [M⁻¹ s⁻¹] | Signal [%] [5] [%] | Signal [%] [6] [%]
B1 | 1.82 | 2.75 | 23.3 | 737000 | 85 | 90
B2 | 0.00667 | 7180 | 42.5 | 1.66e+06 | 82 | 91
B3 | 3.33 | 1.72 | 33.1 | 727000 | 85 | 92
